Reference: IntAct's records for PubMed 20388642

B1: Ras-related protein Rab-8A (Homo sapiens), P61006 (parent)
chain: MAKTYDYLFKLLLIGDSGVGKTCVLFRFSEDAFNSTFISTIGIDFKIRTIELDGKRIKLQIWDTAGQERFRTITTAYYRGAMGIMLVYDITNEKSFDNIRNWIRNIEEHASADVEKMILGNKCDVNDKRQVSKERGEKLALDYGIKFMETSAKANINVENAFFTLARDIKAKMDKKLEGNSPQGSNQGVKITPDQQKRSSFFRCVLL

Variants of: B1
Settings: with optn_human OPTN

Variant	effect of a mutation on the interaction
MAKTYDYLFKLLLIGDSGVGKNCVLFRFSEDAFNSTFISTIGIDFKIRTIELDGKRIKLQIWDTAGQERFRTITTAYYRGAMGIMLVYDITNEKSFDNIRNWIRNIEEHASADVEKMILGNKCDVNDKRQVSKERGEKLALDYGIKFMETSAKANINVENAFFTLARDIKAKMDKKLEGNSPQGSNQGVKITPDQQKRSSFFRCVLL [T22N]	decreasing interaction
